{"source": "the DeepSol protein solubility set", "data": [{"assay": "soluble on expression in E. coli; label from the status in PepcDB or PDB records", "values": [{"sequence": "MGSDKIHHHHHHMHNHPAKRINSIKLCLDVKVALTPQTESRDMAASSKDAAFWSKISRKYAADPIRNMDGYLQTLDRTKSYLKPEDHVLEIGCGTGSTALLLAPHVAHITGTDLAPGMIEIAAEKRAKEGLENVTFKVAETLDHNPQDGAYDAILAHNLLHLLHDLDQSLQRIAALTKTGGVFISKTVCAPKAGGIKYALIRALAIPLMQRIGKAPYVNFISVPDLERRIERAGFEICEVISQPGLMQSHYVVARKL", "soluble on expression in E. coli": "not soluble"}, {"sequence": "MGSDKIHHHHHHMHTMHIPSGDVLIPKPKLITEETDPLHIIKTRQKTHGRPVTIAGPMVRYSKLPFRQLCREYNVDIVYSPMILAREYVRNEHARISDLSTNNEDTPLIVQVGVNNVADLLKFVEMVAPYCDGIGINCGCPIKEQIREGIGCALIYNSDLLCSMVHAVKDKYGDKLRIETKIRIHEALDETVELCRKLCDAGVDWITIHGRTRRTRSSQPANLDAIKYIIENISDKNVPVIANGDCFKLSDLERITKYTGAHGVMAVRGLLSNPALFAGYTTCPWGCIEKFCYWALEFGGLPFQLAQHHLYCMLENMELKKSLLKKMMNLKNYISLIDWFNKTFEFKRYGEDGFGMGVEIPYKANSCVQRSASVVERQE", "soluble on expression in E. coli": "not soluble"}, {"sequence": "MGSDKIHHHHHHMIDKLEFFLALARERHFGRAAEECGVTQPTLSAAIRQLEEQLGVILVNRGSRFQGLTPEGQRVLEWARRIVSDSRTMREEMRAARKGLSGHMRLAAVPTTLSMVPLITAPFQEKHPDVTFSVLSTTSLQILALLENLEIDAGLTYLENEPLGRVTSVPLQIEQYHLVTAAGTALSDRESVTWKEVSDIRLCLLTADMQNRRIINQHFAEAGAVPKPTLESNSMIVLFSHVRTGRWASIMPYNVAKSFGFHEDIRMIPIVDPDVRHTVGLVATYREPFTPLVSALLHEARILGERNQVQ", "soluble on expression in E. coli": "not soluble"}, {"sequence": "MGSDKIHHHHHHMIDSMTHRKLSNTAQRPSPTRPRHGANATWRMLSVSALMLAMASTATWASDVKSQQTQAADIARNMANNTDTCYVEGVSDRLNCGFVTVPENPNKPDGKQIQVHYVVLPAVKNVNHEEALLAIAGGPGQSAIDNAAGFDAMLSKVRQQRDILLIDQRGTGRSNLLTCDEGAQSPLSFDDDNADTLAETQKCLAKIDADVTQYGSLNAIKDFEAVRQHLGYKKLHIYGISYGTRMAQLYMRLYPAHLATVTLDGIVPMQQSVLEIGASIDRGFDLLFKDCQETTACHAQFPELKAEFDQVAASLAKAPVMENVYDPVTGEKTMLTMTRGKFYGSIRMALYQANVRALVPHAIHQAAKHNFQPILGLYSLTTDNAGMAMGMHASVVCGEDMPRITPAMREQAQHSFMGKTMLEGLEATCEVWKVPAVDDSFSEPISSDIPTLLLSGEIDPATPPSWGELAMEKLTNAKHFVAPYATHGVAYQSCANNLIADLVRSGSVKDLDGECLKKDVRRSFYLNASSVEPLDATSTKTTDDNASTGAKE", "soluble on expression in E. coli": "not soluble"}, {"sequence": "MGSDKIHHHHHHMIDWLYSYPPLYPGILLKRYKRFFADVQLASGEVVTAHCPNTGPMTGVSTLGSVVQLSKSANPKRKLAYTLELIQVHDNEPTWVGVNTALPNQIVKLALAKYLFPELGSYNHIKSEVVYGVDKKSRVDFFLTGSDTERPIYLEVKNTTWAKGTLALFPDTETTRGQKHLRELMTLLPQTRSVMLYFINRGDCTEFAPGDSTDPIYGKLLREAIALGLEVLPCRFDVTPEGIRYLGLAKLVI", "soluble on expression in E. coli": "not soluble"}, {"sequence": "MGSDKIHHHHHHMIETRQKQERVILIGVALPNSENFDLSMEELASLAKTAGAEVVQTHTQKRDHYDSKSFIGSGKLLEIKQIIATDAIDSVIVNNRLTPRQNAYLEAELGVKVIDRMQLILDIFAMRARSHEGKLQVHLAQLKYMLPRLVGQGIMLSRQAGGIGSRGPGESQLELNRRSIRKQIADIERQLKNAEKNRETNREKRLDSQIFKIGLIGYTNAGKSTIMNVLTDNKQYEADELFATLDATTKQIYLTDHFQATLTDTVGFIQDLPTELVAAFKSTLEESRQVDLLLHVIDASDPNHEEHEKVVHDLLKELGMTAIPRLLVYNKMDKAENFIASQFPHISLSAKSDEAAALLRQSILEKIKTLFVPFTITWRQEKSYKLYELDKIALLTSYDVKQELQEIKGYISEKNKWRLEEFYRELS", "soluble on expression in E. coli": "not soluble"}, {"sequence": "MGSDKIHHHHHHMIEVQKQIDLDLELDIYKKLLEDNILFFDIETTGFDKEKEKVVLISGGWFLQDKKFVIKQYFAESLDEEVQVLKAFKEDVTKFNSWCSYNGKAFDEPFIKKRMNINNIEFTPPREHIDLYRIIRPYYKQLGMERCNLKSVEKYLGIHRADKIDGGISVELYYNFLDTKDERLRYVIMLHNYEDVLNLPSIFKLTYDIEKNDTLKREGGITKKQLDYLRFLMKKNNIQVTDDLKKISKKSASRIIDSILRGNIDIDKFNAIIKDSY", "soluble on expression in E. coli": "not soluble"}]}]}
